Source: the supplement of paper PMC10126150
± gives the standard deviation of the averaged measurements.

Tested on: ATP
Assay: switch fluorescence ratio, 500 uM ATP over buffer (Cy3 cluster intensity, sum of 5 cycles each) (fold (ratio)); higher = stronger signal-on switching upon ATP binding; sequences stand for … in TCGTCGGCAGCGTCAGATGTGTATAAGAGACAGTTTTTTTTTTTTTTTTTTTTTTTTT…TC
Conditions: aptamer strand: ATP DNA aptamer (quencher-CACCTGGGGGAGTATTGCGGAGGAAGG + anchor), 100 nM annealed; ATP concentration: 500 uM
How it was run: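 After annealing to 100 nM quencher-labelled ATP aptamer, Cy3-labelled switching-strand clusters on a modified Illumina MiSeq flow-cell were imaged in selection buffer. A second image followed after 15 min with 500 uM ATP at 22 °C, and five such buffer/ATP cycles were done, each separated by NaOH stripping and re-annealing. The fluorescence ratio, averaged per switch-domain sequence, is summed target-cycle over summed buffer-cycle Cy3 intensity per cluster, with clusters outside 100-1000 RFU excluded.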
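Further: ATP exposure 15 min at 22 °C before imaging.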

TGTGTTCCTC
switch fluorescence ratio: 1.08 ± 0.013

ATTCGGGGGT
switch fluorescence ratio: 0.993 ± 0.023

CACACAAATT
switch fluorescence ratio: 1.18 ± 0.15

AATTAGGGTG
switch fluorescence ratio: 1.09 ± 0.05

TCAGGTGTGT
switch fluorescence ratio: 1.36 ± 0.11

TTTTTTCTG
switch fluorescence ratio: 1.04 ± 0.097

GAAGTAAGAG
switch fluorescence ratio: 1.11 ± 0.019

TTCAGGCTGT
switch fluorescence ratio: 0.9811 ± 0.0054

GGGTGCTGTG
switch fluorescence ratio: 1 ± 0.034

TTACAGCTAG
switch fluorescence ratio: 1.01 ± 0.056

TGAAGGGTGC
switch fluorescence ratio: 1.02 ± 0.054

TGTGTACCGG
switch fluorescence ratio: 1.01 ± 0.028

ATTTTTTGGT
switch fluorescence ratio: 0.9981 ± 0.006

GACAGTCAAA
switch fluorescence ratio: 1.01 ± 0.04

ACGGTGGGGA
switch fluorescence ratio: 1.04 ± 0.036

TCGGCACATT
switch fluorescence ratio: 1.46 ± 0.63

AGTTCAGGGC
switch fluorescence ratio: 1.003 ± 0.004

CGGATCAGAA
switch fluorescence ratio: 0.9956 ± 0.001

AATGAAATAG
switch fluorescence ratio: 0.998 ± 0.0061

TTCTTTATAT
switch fluorescence ratio: 0.9721 ± 0.005

GGAAGATGGG
switch fluorescence ratio: 0.99 ± 0.021

CGTGTAAGAT
switch fluorescence ratio: 1.03 ± 0.047

GGGGGTGGTG
switch fluorescence ratio: 0.988 ± 0.038

AAATTGCTAG
switch fluorescence ratio: 0.997 ± 0.032

CTAACGAGGG
switch fluorescence ratio: 0.9731 ± 0.0043

ACTAGGGTGC
switch fluorescence ratio: 1.14 ± 0.014

TTGATTCGT
switch fluorescence ratio: 0.99 ± 0.02

GATGGAACAC
switch fluorescence ratio: 0.994 ± 0.017

AGGTTTGGTT
switch fluorescence ratio: 1.01 ± 0.04

ATTAGTCGCG
switch fluorescence ratio: 1.01 ± 0.014

GGGGTGGGTG
switch fluorescence ratio: 1.03 ± 0.039

TGTCGGTGGG
switch fluorescence ratio: 0.992 ± 0.016

TTTGAGCTGG
switch fluorescence ratio: 0.996 ± 0.035

ATATTGGGGT
switch fluorescence ratio: 1.01 ± 0.019

AAGTGGGGGG
switch fluorescence ratio: 1 ± 0.024

TGGAGTAACT
switch fluorescence ratio: 1.0876 ± 0.00087

GGAGTTATAA
switch fluorescence ratio: 1.05 ± 0.034

AAAGAGTTCA
switch fluorescence ratio: 1 ± 0.035

TGAAGACCAT
switch fluorescence ratio: 1.016 ± 0.0058

AGTGAGTGCA
switch fluorescence ratio: 1.039 ± 0.0094

TCGGGGTAAG
switch fluorescence ratio: 1.03 ± 0.015

AGATATGAGA
switch fluorescence ratio: 1.031 ± 0.0075

TAATCAACGA
switch fluorescence ratio: 1 ± 0.019

AATGTTATTA
switch fluorescence ratio: 0.995 ± 0.048

TCATCGGGGT
switch fluorescence ratio: 0.994 ± 0.023

ATTGGGCAGC
switch fluorescence ratio: 1 ± 0.027

AGGAGGGACT
switch fluorescence ratio: 1 ± 0.041

TCGTGGGGGG
switch fluorescence ratio: 0.991 ± 0.031

TAGGTGGTTT
switch fluorescence ratio: 0.989 ± 0.026

ATGCTCTGCC
switch fluorescence ratio: 0.992 ± 0.029

TGTATGGGGT
switch fluorescence ratio: 0.973 ± 0.018

TTGAAACCGG
switch fluorescence ratio: 0.998 ± 0.017

AGAATTAGAG
switch fluorescence ratio: 0.969 ± 0.054

TGGGCGAGAA
switch fluorescence ratio: 0.9685 ± 0.0052

TTCCCGATCA
switch fluorescence ratio: 1.01 ± 0.018

TTAGAGGGTA
switch fluorescence ratio: 0.9736 ± 0.0085

TTTTCAGGCG
switch fluorescence ratio: 1 ± 0.07

TGCATTCATG
switch fluorescence ratio: 0.996 ± 0.029

GTTTTCAATT
switch fluorescence ratio: 0.983 ± 0.01

AAAAATGGCT
switch fluorescence ratio: 1.04 ± 0.091

AAAAGGTTTT
switch fluorescence ratio: 1 ± 0.033

TTTATATTAA
switch fluorescence ratio: 1.03 ± 0.049

TGGGGCAAAC
switch fluorescence ratio: 1.87 ± 0.81

TGCGGTGTGC
switch fluorescence ratio: 1.04 ± 0.017

TTGTAGTCTT
switch fluorescence ratio: 0.991 ± 0.022

GGGGCGCGAC
switch fluorescence ratio: 0.993 ± 0.085

TCGCTTGTTG
switch fluorescence ratio: 1.03 ± 0.022

GCTAGTAAGA
switch fluorescence ratio: 1.014 ± 0.008

GGTACTACGG
switch fluorescence ratio: 1.05 ± 0.017

CAATTTTTCG
switch fluorescence ratio: 1.02 ± 0.048

TTCGGCAACG
switch fluorescence ratio: 0.997 ± 0.035

ATTTGATTCT
switch fluorescence ratio: 0.984 ± 0.023

CCGGGGTAGA
switch fluorescence ratio: 1.02 ± 0.023

GTTGGGACGG
switch fluorescence ratio: 0.9569 ± 0.006

TTAGGAGAAA
switch fluorescence ratio: 1.03 ± 0.053

TTGGTCCGTG
switch fluorescence ratio: 1.01 ± 0.071

TGTTGTTACA
switch fluorescence ratio: 0.99 ± 0.029

AAAGTTTTGG
switch fluorescence ratio: 0.985 ± 0.026

GGGTTTTGTG
switch fluorescence ratio: 1.01 ± 0.022

TGTAGTAGCA
switch fluorescence ratio: 1.04 ± 0.034

AATTATTACT
switch fluorescence ratio: 1.02 ± 0.034

AGGGAACGAC
switch fluorescence ratio: 1.03 ± 0.05

AGGCGTATAC
switch fluorescence ratio: 1.79 ± 0.18

TCACGTGTCA
switch fluorescence ratio: 0.9999 ± 0.0089

CCCGGGTTGG
switch fluorescence ratio: 1.12 ± 0.08

ACTCTTAGGG
switch fluorescence ratio: 1.03 ± 0.027

TAAAGCAGGC
switch fluorescence ratio: 1.11 ± 0.14

GTATGGCTAG
switch fluorescence ratio: 0.978 ± 0.029

ATGACCCCTC
switch fluorescence ratio: 1.044 ± 0.007

AGGGAGTCTG
switch fluorescence ratio: 1.018 ± 0.0035

ACGATTTTAG
switch fluorescence ratio: 1.04 ± 0.041

TGATGGAGGG
switch fluorescence ratio: 0.997 ± 0.026

TCGTATGATA
switch fluorescence ratio: 0.968 ± 0.036

TTGCTGGAAG
switch fluorescence ratio: 0.978 ± 0.035

ATTGTGGGGC
switch fluorescence ratio: 1 ± 0.022

TGCTGGGGAA
switch fluorescence ratio: 1.01 ± 0.028

ACAGCCACGG
switch fluorescence ratio: 1.18 ± 0.038

AGGTGGGGTT
switch fluorescence ratio: 0.996 ± 0.051

AGATTTTTCA
switch fluorescence ratio: 1 ± 0.021

TTTTTATTCT
switch fluorescence ratio: 1.02 ± 0.02

ACCTGGGTGG
switch fluorescence ratio: 1.03 ± 0.036

TCAGGGCTGT
switch fluorescence ratio: 0.994 ± 0.029

GAGGGGTCCA
switch fluorescence ratio: 0.974 ± 0.021

CGTACTGGAG
switch fluorescence ratio: 1.01 ± 0.056

GGGGGTGAAC
switch fluorescence ratio: 0.98 ± 0.029

TCAAGGCCTG
switch fluorescence ratio: 1.01 ± 0.042

AGTAAAGTTA
switch fluorescence ratio: 1.008 ± 0.008

AGGTTTTTAG
switch fluorescence ratio: 0.944 ± 0.024

TTTGCTTGGG
switch fluorescence ratio: 1.02 ± 0.033

TTTAGGGAGT
switch fluorescence ratio: 0.985 ± 0.015

ATGTCCGGGG
switch fluorescence ratio: 0.985 ± 0.042

ATAGGCTATA
switch fluorescence ratio: 0.976 ± 0.025

TTAACCGGGT
switch fluorescence ratio: 1.01 ± 0.057

CGAGCTTATC
switch fluorescence ratio: 1.2 ± 0.056

ATTTTTTACA
switch fluorescence ratio: 1.082 ± 0.0069

ACTTGTTTAT
switch fluorescence ratio: 0.981 ± 0.032

CCTTGTGTTG
switch fluorescence ratio: 1.01 ± 0.017

AAAGCGGTTG
switch fluorescence ratio: 0.98 ± 0.012

TATAGATGAC
switch fluorescence ratio: 0.989 ± 0.017

CAGGCCTAGG
switch fluorescence ratio: 0.946 ± 0.024

TGTGGGCATT
switch fluorescence ratio: 1.019 ± 0.0053

TTACTTTTAC
switch fluorescence ratio: 1.13 ± 0.14

AGTGATTGGG
switch fluorescence ratio: 0.995 ± 0.031

GGTTTATGGT
switch fluorescence ratio: 0.967 ± 0.019

GGTTGCTCGG
switch fluorescence ratio: 0.998 ± 0.026

GTCACAACGG
switch fluorescence ratio: 0.999 ± 0.024

GGGCTAAGGC
switch fluorescence ratio: 0.9923 ± 0.0037

AAAGGCGCTG
switch fluorescence ratio: 0.984 ± 0.041

TCAGGGAGTT
switch fluorescence ratio: 0.969 ± 0.015

GTTCGACTCC
switch fluorescence ratio: 1.15 ± 0.014

TTTGTGCCTT
switch fluorescence ratio: 1.1 ± 0.12

TGAGATAGAG
switch fluorescence ratio: 0.975 ± 0.018

ATTCTGCGGA
switch fluorescence ratio: 1.01 ± 0.019

GGGGAGTAGG
switch fluorescence ratio: 1.03 ± 0.049

GGGGTAGGGA
switch fluorescence ratio: 1 ± 0.019

CGGGATGGCC
switch fluorescence ratio: 1 ± 0.018

CATGTAGCGT
switch fluorescence ratio: 1 ± 0.027

GGGAACACTT
switch fluorescence ratio: 0.998 ± 0.025

CCTGTGATAT
switch fluorescence ratio: 1.3 ± 0.031

CCCTAGTATG
switch fluorescence ratio: 0.9915 ± 0.0059

AGAGAATGGT
switch fluorescence ratio: 0.999 ± 0.027

GGTTGGTATG
switch fluorescence ratio: 0.987 ± 0.027

TGGCGATTGG
switch fluorescence ratio: 0.985 ± 0.023

ATTTGACCAT
switch fluorescence ratio: 1.13 ± 0.18

GGGATGTTAT
switch fluorescence ratio: 1.03 ± 0.014

AGAAAGGGTT
switch fluorescence ratio: 0.98 ± 0.022

GGATGGTTCG
switch fluorescence ratio: 0.972 ± 0.023

CAGAGGGGCG
switch fluorescence ratio: 1.04 ± 0.043

CAGTCTTGC
switch fluorescence ratio: 1.03 ± 0.021

CGTAGCGTTT
switch fluorescence ratio: 0.998 ± 0.04

ATCGAAAAGG
switch fluorescence ratio: 0.998 ± 0.027

TTTTTCACTA
switch fluorescence ratio: 1.03 ± 0.033

AGGGAATGAT
switch fluorescence ratio: 1.01 ± 0.015

GGTATCAGTT
switch fluorescence ratio: 1.0006 ± 0.0002

CGTAGGGTTA
switch fluorescence ratio: 1.01 ± 0.025

ATTGAAATCA
switch fluorescence ratio: 0.987 ± 0.018

GATGATTCTG
switch fluorescence ratio: 1.001 ± 0.0056

CTGGTTGCGG
switch fluorescence ratio: 0.979 ± 0.021

CGGGGTCCTC
switch fluorescence ratio: 1.01 ± 0.018

GATAAAAGCG
switch fluorescence ratio: 0.994 ± 0.0015

CGGCCGTTCG
switch fluorescence ratio: 1.1 ± 0.14

TTGTGTCTGC
switch fluorescence ratio: 0.999 ± 0.011

AAATGGAGGA
switch fluorescence ratio: 0.988 ± 0.032

GCGAATAAGT
switch fluorescence ratio: 1.02 ± 0.031

TCTCGCGGGA
switch fluorescence ratio: 0.97 ± 0.023

TCTATGGTGA
switch fluorescence ratio: 1.0391 ± 0.00096

ATTCTGGGGA
switch fluorescence ratio: 0.988 ± 0.026

AGAAAGCGCG
switch fluorescence ratio: 1.05 ± 0.019

CTAGGATCTA
switch fluorescence ratio: 0.996 ± 0.062

TACTAACCAT
switch fluorescence ratio: 1.12 ± 0.066

GATTGTTGTA
switch fluorescence ratio: 0.979 ± 0.014

TAGGCGTACG
switch fluorescence ratio: 1.08 ± 0.006

AGGATTGAAC
switch fluorescence ratio: 0.991 ± 0.018

GATACCGGGT
switch fluorescence ratio: 1.01 ± 0.022

GAGGCAAGG
switch fluorescence ratio: 1.341 ± 0.0038

TGGGGACCTT
switch fluorescence ratio: 1 ± 0.0032

ATAAATTAGT
switch fluorescence ratio: 0.998 ± 0.018

ATCCAGGTAG
switch fluorescence ratio: 1.75 ± 0.076

TGCTATAATG
switch fluorescence ratio: 1.02 ± 0.021

GGGTGAAAGG
switch fluorescence ratio: 0.996 ± 0.025

AATAGATAGT
switch fluorescence ratio: 0.9929 ± 0.0055

AAGGGGGGCC
switch fluorescence ratio: 1.01 ± 0.089

ATAGAATTGG
switch fluorescence ratio: 1.02 ± 0.021

TGGGGACGGT
switch fluorescence ratio: 1.01 ± 0.012

TTTAAAGGGT
switch fluorescence ratio: 1.01 ± 0.031

AGCTGGAGGT
switch fluorescence ratio: 0.992 ± 0.026

ATTGGGGGTT
switch fluorescence ratio: 0.978 ± 0.018

TTGAGGGATA
switch fluorescence ratio: 1.01 ± 0.055

CCTTTTTGGG
switch fluorescence ratio: 0.9831 ± 0.0032

AGGTCTCTTT
switch fluorescence ratio: 0.982 ± 0.021

ACTCGGACCG
switch fluorescence ratio: 1.0425 ± 0.00055

GTTAGGGTAG
switch fluorescence ratio: 0.992 ± 0.025

TATGCCCAGA
switch fluorescence ratio: 1.03 ± 0.041

TATAGTGCTC
switch fluorescence ratio: 0.986 ± 0.054

TCGGGGCACG
switch fluorescence ratio: 0.993 ± 0.052

CTATGTTGGT
switch fluorescence ratio: 0.9562 ± 0.0062

GGGGGGAACT
switch fluorescence ratio: 0.987 ± 0.022

TAAGGAATGT
switch fluorescence ratio: 1.04 ± 0.0038

TTACTGCTCG
switch fluorescence ratio: 1.01 ± 0.03

ATTTAAGGTA
switch fluorescence ratio: 1.01 ± 0.024
